According to US20210179680A1, “POLYPEPTIDE, DERIVATIVES THEREOF, AND APPLICATION THEREOF IN PREPARATION OF DRUGS HAVING RESISTANCE TO PULMONARY FIBROSIS” (priority 2016, published 2021):
Bridge positions count the residues as written; N and C are the ends. Square brackets hold non-standard residues; d marks the D form. Ends that are not written are not given here. S5 = C=CCCC[C@](C)(N)C(=O)O

T1: Purified TRB3 protein (purchased from RD) (UniProt Q96RU7 1-358, limits assumed)
T1 construct: Amine-coupled to the Biacore chip; also called Tribbles Homologue 3
T1 sequence (looked up): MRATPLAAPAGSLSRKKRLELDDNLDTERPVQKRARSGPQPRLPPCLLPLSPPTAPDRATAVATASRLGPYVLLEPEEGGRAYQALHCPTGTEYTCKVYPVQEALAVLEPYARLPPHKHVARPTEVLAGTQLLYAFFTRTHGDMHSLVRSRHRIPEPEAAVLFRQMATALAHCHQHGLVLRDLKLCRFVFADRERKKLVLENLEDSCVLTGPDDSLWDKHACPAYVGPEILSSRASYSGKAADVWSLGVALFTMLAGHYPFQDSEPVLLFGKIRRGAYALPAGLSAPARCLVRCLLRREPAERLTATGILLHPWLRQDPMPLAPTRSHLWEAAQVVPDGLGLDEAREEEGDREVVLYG


Biological target: T1, Purified TRB3 protein (purchased from …)
Experiment: SPR, Biacore T200, TRB3 amine-coupled to chip, peptide as analyte, 25° C.
Method: The surface plasmon resonance experiment was carried out in a surface plasmon resonator Biacore T200, and the procedure was carried out in accordance with the instructions of the plasma resonator Biacore T200. Specific steps are as follows:
1. Purified TRB3 protein (purchased from RD) was coupled to a CMS chip (purchased from GE) by amidogen, and the unbound protein was eluted at a flow rate of 10 μL/min. The surface of the chip was equilibrated for 2 hours. Among them, the specific steps of amidogen coupling, elution and equilibration refer to the relevant instruction of GE's CMS chip.
2. […] The buffer used was HBS-EP buffer [0.01 M HEPES, 0.15 M NaCl, 3 mM EDTA and 0.005% (w/w) surfactant TWEEN20]. Biacore T200's built-in analysis software was used to simulate the binding curves of different concentrations of peptides to TRB3. FIG. 4-1, 4-2 and Table 1 illustrate that peptides MR2, S1, S2, S3, S4, S5, S6, S7, S8, S9, S10 and S11 can all interacted with the TRB3 protein.

| Binder | Kd |
| --- | --- |
| HLMACFT[S5]AKK[S5]KKR (staple 8-12, Stapled variant of MR2) [polypeptide S8] | 35.9 nM |
| HL[S5]ACF[S5]CAKKLKKR (staple 3-7; cysteine pairing not given here, Stapled variant of MR2) [polypeptide S3] | 42.7 nM |
| H[S5]MAC[S5]TCAKKLKKR (staple 2-6; cysteine pairing not given here, Stapled variant of MR2) [polypeptide S2] | 19.1 nM |
| HLMA[S5]FTC[S5]KKLKKR (staple 5-9, Stapled variant of MR2) [polypeptide S5] | 11.5 nM |
| HLM[S5]CFT[S5]AKKLKKR (staple 4-8, Stapled variant of MR2) [polypeptide S4] | 9.63 nM |
| HLMACFTCA[S5]KLK[S5]R (staple 10-14; cysteine pairing not given here, Stapled variant of MR2) [polypeptide S10] | 29.3 nM |
| HLMACF[S5]CAK[S5]LKKR (staple 7-11; cysteine pairing not given here, Stapled variant of MR2) [polypeptide S7] | 8.95 nM |
| HLMACFTCAK[S5]LKK[S5] (staple 11-15; cysteine pairing not given here, Stapled variant of MR2) [polypeptide S11] | 37.7 nM |
| HLMAC[S5]TCA[S5]KLKKR (staple 6-10; cysteine pairing not given here, Stapled variant of MR2) [polypeptide S6] | 49.6 nM |
| HLMACFTC[S5]KKL[S5]KR (staple 9-13; cysteine pairing not given here, Stapled variant of MR2) [polypeptide S9] | 37.1 nM |
| [S5]LMA[S5]FTCAKKLKKR (staple 1-5, Stapled variant of MR2) [polypeptide S1] | 20.2 nM |
| HLMACFTCAKKLKKR (Synthetic unmodified 15-mer; also called MR2 polypeptide) [polypeptide MR2] | 43.3 nM |
